Biological target: integrin β1 (receptor subunit on the seeded cells, blocked with anti-β1 monoclonal antibody) (hamster (baby hamster kidney cells))
Test: cell-based or functional assay

In the case of “TMV-RGD1 (Tobacco mosaic virus particle whose coat protein carries the insert GRGDSPG extended after T159) (from UniProt P69687 2-159)”, the cell attachment on virus coated plate after blocking the cells with integrin specific monoclonal antibody (% drop in attachment) was 25.

From patent US20140287507A1
